Laboratory results published in patent publication US20040248211A1, “ICAM-related protein” (priority 1992, published 2004).

What was measured:
ICAM-R on PBL = biological target: T1, ICAM-R on PBL (Homo sapiens, UniProt P32942); assay: FACS-based competition assay; type: binding; conditions: 5 μg antibody; equivalent on SKW3
T1 construct: endogenous in cells; host or cells: human peripheral blood leukocytes
T1 sequence (P32942 30-547): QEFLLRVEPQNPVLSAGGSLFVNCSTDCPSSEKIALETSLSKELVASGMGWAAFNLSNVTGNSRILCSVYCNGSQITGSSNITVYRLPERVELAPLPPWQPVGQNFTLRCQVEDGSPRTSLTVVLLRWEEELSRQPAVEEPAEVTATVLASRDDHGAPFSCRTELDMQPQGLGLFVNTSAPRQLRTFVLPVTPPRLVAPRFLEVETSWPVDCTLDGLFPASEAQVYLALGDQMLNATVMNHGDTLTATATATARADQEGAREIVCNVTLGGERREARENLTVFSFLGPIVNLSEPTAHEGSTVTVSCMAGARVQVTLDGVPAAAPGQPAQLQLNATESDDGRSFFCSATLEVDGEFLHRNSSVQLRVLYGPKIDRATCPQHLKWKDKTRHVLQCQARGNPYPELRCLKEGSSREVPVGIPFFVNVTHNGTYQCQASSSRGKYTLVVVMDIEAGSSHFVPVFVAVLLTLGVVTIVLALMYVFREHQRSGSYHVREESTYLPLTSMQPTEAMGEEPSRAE
Description: In the assays, human peripheral blood leukocytes (PBL) obtained by Ficoll Hypaque centrifugation of normal peripheral blood were washed twice in ice cold FACS buffer (PBS containing 0.1% sodium azide and 1% bovine serum albumin) and 2×10^5 cells were incubated in triplicate polypropylene tubes with 5 μg of each of the following antibodies ICR-1.1, ICR-4.2, and control isotype IgG (Sigma). All tubes containing the first stage antibodies were then incubated for 30 minutes at 4° C. and washed twice in cold FACS buffer. To each triplicate tube, 5 μg of each of the following second stage antibodies were added: biotinylated-ICR-1.1, biotinylated-ICR-4.2, biotinylated-anti-rat CD4 (negative control). All second stage antibodies were bibtinylated according to standard procedures as described in Example 12 and all tubes were then incubated for an additional 30 minutes at 4° C. before washing twice in FACS buffer. […] Finally, all tubes were washed twice in FACS buffer and analyzed by flow cytometry (FACScan, Becton-Dickinson).
SKW3 cells were labelled with either 1 μg of antibody ICR-1.1 or ICR-4.2, washed in FACS buffer and incubated with 1 μg biotinylated-ICR-1.1 or biotinylated ICR-4.2. All tubes were then washed in FACS buffer, incubated with Strepavidin-phycoerythrin for an additional 30 minutes at 4° C. and analyzed by FACScan.

PBMC = assay: Anti-CD3 stimulated PBMC aggregation; type: cell-based, human; conditions: immobilized antibody
PBL = assay: Detergent resistance (cytoskeleton association) assay, PBL; type: cell-based, human
Description: Experiments were conducted using freshly prepared human PBL or the human T lymphoblastoid cell line CEM-CCRF (ATCC CCL119). Briefly, freshly drawn human blood from healthy volunteer donors was diluted 1:1 with PBS and layered onto Sigma HistoPaque density separation medium. The gradients were centrifuged for 30 minutes at 1500 rpm (600×g) and the mononuclear cell fraction at the interphase was collected and washed three times with PBS. The cell pellet was resuspended in complete RPMI-1640 medium (Gibco, supplemented with L-glutamine, penicillin/streptomycin, sodium pyruvate, 2-mercaptoethanol, and 10% FBS) and plated onto tissue culture-treated petri dishes for adherent cell depletion. Plates were incubated 1-2 hours at 37° C., 5% CO2 after which nonadherent PBL were harvested and washed twice with ice-cold PBS. Conjugation of monoclonal antibodies to fluorescein using fluorescein isothiocyanate (FITC) was performed according to published procedures [see, e.g., Goding, J. Immunol. Meth., 13: 215 (1976)] and, in brief, involves incubation of purified antibody with an excess of FITC (Sigma) in 0.1M bicarbonate buffer pH 8.1 for 90 minutes at 37° C. followed by exhaustive dialysis against PBS to remove unreacted FITC. […]

Jurkat T leukemic cells = assay: F-actin and G-actin cell content; type: cell-based, human
Description: Cellular shape changes (such as cell spreading) as well as T-cell activation are associated with changes in the cytoskeletal actin network manifested by alteration of the ratio of globular actin (G-actin) to filamentous actin (F-actin). To test whether the engagement by ICAM-R antibodies of ICAM-R expressed on Jurkat T leukemic cells would induce changes in cellular actin ratios, studies measuring F-actin and G-actin cell content were carried out by methods known in the art.

B1: ICR-1.1: anti-ICAM-R monoclonal antibody, IgG2a, domain 1, ATCC HB 11053 (antibody, V domains shown)
VH: QVQLQQSGAELAKPGASVKMSCKASGYTFTVYWMHWVKQRPGQGLEWIGYINPNTDYTEYNQRFQDKATLTADKSSSTAYMQLSSLTSEDSAVYYCARWGGNSYGLDYWGQGTSVTVSS
VL: QIVLTQSPALMSASPGEKVTMTCSASSSVSYIYWYQQKPRSSPKPWIYLTSNLASGVPARFSGSGSGASYSLTISIMEAEDAATYYCQQWKSIPLTFGAGTKLELK
blocking of biotinylated-ICR-1.1 binding (ICAM-R on PBL): did block binding of biotinylated-ICR-1.1
blocking of biotinylated-ICR-4.2 binding (ICAM-R on PBL): did not block binding of monoclonal antibody ICR-4.2
inhibition of anti-CD3 stimulated aggregation (PBMC): ~100%
greater increase in detergent resistance, crosslinked antibody (PBL): approximately 2 fold
time to peak F-actin content (Jurkat T leukemic cells; OKT3 plus gam, ICR-1.1 without gam): ≤ 60 min
F-actin content (Jurkat T leukemic cells; OKT3 plus goat anti-mouse crosslinker (gam), ICR-1.1 without gam): slight transient increase in F-actin content
cellular G-actin (Jurkat T leukemic cells; with gam crosslinker): gradual decrease in cellular G-actin
rise of F-actin content (Jurkat T leukemic cells; with gam crosslinker, prolonged plateau): 75-100%
